Results: US20210269525A1

Legend:
[1] = target: monkey CD3e (Macaca fascicularis) on PBMC (Macaca fascicularis) (UniProt Q95LI5); assay: flow cytometry, Macaca fascicularis PBMC, negative control of unstated make-up
[2] = target: human CD3e (T-cell surface glycoprotein CD3 epsilon chain) (human) (UniProt P07766); assay: flow cytometry, human PBMC, negative control of unstated make-up
[3] = target: monkey CD3e (Macaca fascicularis) on PBMC (Macaca fascicularis) (UniProt Q95LI5); assay: flow cytometry, Macaca fascicularis PBMC, control sample (Table 2: 1:400), AF647-anti-hIgG
[4] = target: monkey CD3e (Macaca fascicularis) on PBMC (Macaca fascicularis) (UniProt Q95LI5); assay: flow cytometry, Macaca fascicularis PBMC, control sample (Table 2: 1:400), AF647-anti-mIgG
[5] = target: human CD3e (T-cell surface glycoprotein CD3 epsilon chain) (human) (UniProt P07766); assay: flow cytometry, human PBMC of subject 2 (PBMC human2#), negative control, AF647-anti-mIgG, PerCP anti-hTcRβ
[6] = target: human CD3e (T-cell surface glycoprotein CD3 epsilon chain) (human) (UniProt P07766); assay: flow cytometry, human PBMC of subject 1 (PBMC human1#), negative control, AF647-anti-mIgG, PerCP anti-hTcRβ

Sequence of monkey CD3e (Macaca fascicularis) on PBMC (Macaca fascicularis) (Q95LI5 22-198 limits assumed): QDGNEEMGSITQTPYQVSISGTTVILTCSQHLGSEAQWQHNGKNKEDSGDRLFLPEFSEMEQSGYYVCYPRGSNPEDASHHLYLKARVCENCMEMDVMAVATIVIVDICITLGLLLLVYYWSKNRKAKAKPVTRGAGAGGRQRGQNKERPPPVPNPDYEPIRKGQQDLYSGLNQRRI

NC
upper left quadrant, percent of cells AF647+ / hTcRβ-PerCP- [1]: 0.162% | upper left quadrant, percent of cells AF647+ / hTcRβ-PerCP- [2]: 0.24%

hIgG (antibody)
FL4-H, SSC-H subset (percent of cells in the AF647-positive gate) [3]: 3.27%

mIgG (antibody)
FL4-H, SSC-H subset (percent of cells in the AF647-positive gate) [4]: 0.58% | Q1, percent of cells AF647+ / hTcRβ-PerCP- [5]: 0.0036% | Q2, percent of cells AF647+ / hTcRβ-PerCP+ [5]: 0.21% | Q1, percent of cells AF647+ / hTcRβ-PerCP- [6]: 0.00361% | Q2, percent of cells AF647+ / hTcRβ-PerCP+ [6]: 0.19%
